Target: synthetic peptide with N-terminal methionine (Example 1, on nanogel surface)
Test: single-molecule detection, TIRF microscopy; labeled NAAB on peptide immobilized on nanogel; counts per field of view

wild-type E. coli methionine aminopeptidase (eMAP) (from UniProt P0AE18 1-264) (enzyme)
ratio of specific to non-specific binding: 2 to 1

— US20210072252A1
